T1: KRAS G12D peptide on HLA-A*11:01 (human)
T1 peptide: VVVGADGVGK

B1: TCR1 (TCR, V domains shown)
Valpha: GDSVTQMEGPVTLSEEAFLTINCTYTATGYPSLFWYVQYPGEGLQLLLKATKADDKGSNKGFEATYRKETTSFHLEKGSVQVSDSAVYFCALSDRVGGARLMFGDGTQLVVKP
Vbeta: EADIYQTPRYLVIGTGKKITLECSQTMGHDKMYWYQQDPGMELHLIHYSYGVNSTEKGDLSSESTVSRIRTEHFPLTLESARPSHTSQYLCASSEGLYNEQFFGPGTRLTVL
B2: TCR6 (TCR, V domains shown)
Valpha: GQQLNQSPQSMFIQEGEDVSMNCTSSSIFNTWLWYKQDPGEGPVLLIALYKAGELTSNGRLTAQFGITRKDSFLNISASIPSDVGIYFCAGRREGAQKLVFGQGTRLTINP
Vbeta: GAGVSQSPRYKVAKRGQDVALRCDPISGHVSLFWYQQALGQGPEFLTYFQNEAQLDKSGLPSDRFFAERPEGSVSTLKIQRTQQEDSAVYLCASSSTLMGVNIQYFGAGTRLSVL
B3: TCR5 (TCR)
TCR alpha: RGEDVEQSLFLSVREGDSSVINCTYTDSSSTYLYWYKQEPGAGLQLLTYIFSNMDMKQDQRLTVLLNKKDKHLSLRIADTQTGDSAIYFCAERDAGNNRKLIWGLGTSLAVNPNIQNPDPAVYQLRDSKSSDKSVCLFTDFDSQTNVSQSKDSDVYITDKCVLDMRSMDFKSNSAVAWSNKSDFACANAFNNSIIPEDTFFPSPESSCDVKLVEKSFETDTNLNFQNLSVIGFRILLLKVAGFNLLMTLRLWSS
TCR beta: GAGVSQSPRYKVAKRGQDVALRCDPISGHVSLFWYQQALGQGPEFLTYFQNEAQLDKSGLPSDRFFAERPEGSVSTLKIQRTQQEDSAVYLCASSLEGGDTQYFGPGTRLTVLEDLKNVFPPEVAVFEPSEAEISHTQKATLVCLATGFYPDHVELSWWVNGKEVHSGVCTDPQPLKEQPALNDSRYCLSSRLRVSATFWQNPRNHFRCQVQFYGLSENDEWTQDRAKPVTQIVSAEAWGRADCGFTSESYQQGVLSATILYEILLGKATLYAVLVSALVLMAMVKRKDSRG
B4: TCR2 (TCR)
TCR alpha: AQTVTQSQPEMSVQEAETVTLSCTYDTSENNYYLFWYKQPPSRQMILVIRQEAYKQQNATENRFSVNFQKAAKSFSLKISDSQLGDTAMYFCAFMYPSQGGSEKLVFGKGMKLTVNPNIQNPDPAVYQLRDSKSSDKSVCLFTDFDSQTNVSQSKDSDVYITDKCVLDMRSMDFKSNSAVAWSNKSDFACANAFNNSIIPEDTFFPSPESSCDVKLVEKSFETDTNLNFQNLSVIGFRILLLKVAGFNLLMTLRLWSS
TCR beta: MGPGLLCWVLLCLLGAGSVETGVTQSPTHLIKTRGQQVTLRCSSQSGHNTVSWYQQALGQGPQFIFQYYREEENGRGNFPPRFSGLQFPNYSSELNVNALELDDSALYLCASSSPGFRSYGYTFGSGTRLTVVEDLKNVFPPEVAVFEPSEAEISHTQKATLVCLATGFYPDHVELSWWVNGKEVHSGVCTDPQPLKEQPALNDSRYCLSSRLRVSATFWQNPRNHFRCQVQFYGLSENDEWTQDRAKPVTQIVSAEAWGRADCGFTSESYQQGVLSATILYEILLGKATLYAVLVSALVLMAMVKRKDSRG
B5: TCR91 (TCR)
TCR alpha: AQKVTQAQTEISVVEKEDVTLDCVYETRDTTYYLFWYKQPPSGELVFLIRRNSFDEQNEISGRYSWNFQKSTSSFNFTITASQVVDSAVYFCALNEGGGSTLGRLYFGRGTQLTVWPDIQNPDPAVYQLRDSKSSDKSVCLFTDFDSQTNVSQSKDSDVYITDKCVLDMRSMDFKSNSAVAWSNKSDFACANAFNNSIIPEDTFFPSPESSCDVKLVEKSFETDTNLNFQNLSVIGFRILLLKVAGFNLLMTLRLWSS
TCR beta: MGPGLLHWMALCLLGTGHGDAMVIQNPRYQVTQFGKPVTLSCSQTLNHNVMYWYQQKSSQAPKLLFHYYDKDFNNEADTPDNFQSRRPNTSFCFLDIRSPGLGDAAMYLCATSTGRVYQPQHFGDGTRLSILEDLNKVFPPEVAVFEPSEAEISHTQKATLVCLATGFFPDHVELSWWVNGKEVHSGVCTDPQPLKEQPALNDSRYCLSSRLRVSATFWQNPRNHFRCQVQFYGLSENDEWTQDRAKPVTQIVSAEAWGRADCGFTSVSYQQGVLSATILYEILLGKATLYAVLVSALVLMAMVKRKDFGGSG
B6: TCR6 (TCR)
TCR alpha: GQQLNQSPQSMFIQEGEDVSMNCTSSSIFNTWLWYKQDPGEGPVLLIALYKAGELTSNGRLTAQFGITRKDSFLNISASIPSDVGIYFCAGRREGAQKLVFGQGTRLTINPNIQNPDPAVYQLRDSKSSDKSVCLFTDFDSQTNVSQSKDSDVYITDKCVLDMRSMDFKSNSAVAWSNKSDFACANAFNNSIIPEDTFFPSPESSCDVKLVEKSFETDTNLNFQNLSVIGFRILLLKVAGFNLLMTLRLWSS
TCR beta: GAGVSQSPRYKVAKRGQDVALRCDPISGHVSLFWYQQALGQGPEFLTYFQNEAQLDKSGLPSDRFFAERPEGSVSTLKIQRTQQEDSAVYLCASSSTLMGVNIQYFGAGTRLSVLEDLKNVFPPEVAVFEPSEAEISHTQKATLVCLATGFYPDHVELSWWVNGKEVHSGVCTDPQPLKEQPALNDSRYCLSSRLRVSATFWQNPRNHFRCQVQFYGLSENDEWTQDRAKPVTQIVSAEAWGRADCGFTSESYQQGVLSATILYEILLGKATLYAVLVSALVLMAMVKRKDSRG
B7: TCR4 (TCR)
TCR alpha: QKEVEQDPGPLSVPEGAIVSLNCTYSNSAFQYFMWYRQYSRKGPELLMYTYSSGNKEDGRFTAQVDKSSKYISLFIRDSQPSDSATYLCAMGALNSGAGSYQLTFGKGTKLSVIPNIQNPDPAVYQLRDSKSSDKSVCLFTDFDSQTNVSQSKDSDVYITDKCVLDMRSMDFKSNSAVAWSNKSDFACANAFNNSIIPEDTFFPSPESSCDVKLVEKSFETDTNLNFQNLSVIGFRILLLKVAGFNLLMTLRLWSS
TCR beta: KAGVTQTPRYLIKTRGQQVTLSCSPISGHRSVSWYQQTPGQGLQFLFEYFSETQRNKGNFPGRFSGRQFSNSRSEMNVSTLELGDSALYLCASSLSSGTGTEAFFGQGTRLTVEDLKNVFPPEVAVFEPSEAEISHTQKATLVCLATGFYPDHVELSWWVNGKEVHSGVCTDPQPLKEQPALNDSRYCLSSRLRVSATFWQNPRNHFRCQVQFYGLSENDEWTQDRAKPVTQIVSAEAWGRADCGFTSESYQQGVLSATILYEILLGKATLYAVLVSALVLMAMVKRKDSRG
B8: TCR1 (TCR)
TCR alpha: GDSVTQMEGPVTLSEEAFLTINCTYTATGYPSLFWYVQYPGEGLQLLLKATKADDKGSNKGFEATYRKETTSFHLEKGSVQVSDSAVYFCALSDRVGGARLMFGDGTQLVVKPNIQNPDPAVYQLRDSKSSDKSVCLFTDFDSQTNVSQSKDSDVYITDKCVLDMRSMDFKSNSAVAWSNKSDFACANAFNNSIIPEDTFFPSPESSCDVKLVEKSFETDTNLNFQNLSVIGFRILLLKVAGFNLLMTLRLWSS
TCR beta: DIYQTPRYLVIGTGKKITLECSQTMGHDKMYWYQQDPGMELHLIHYSYGVNSTEKGDLSSESTVSRIRTEHFPLTLESARPSHTSQYLCASSEGLYNEQFFGPGTRLTVLEDLKNVFPPEVAVFEPSEAEISHTQKATLVCLATGFYPDHVELSWWVNGKEVHSGVCTDPQPLKEQPALNDSRYCLSSRLRVSATFWQNPRNHFRCQVQFYGLSENDEWTQDRAKPVTQIVSAEAWGRADCGFTSESYQQGVLSATILYEILLGKATLYAVLVSALVLMAMVKRKDSRG

Target: T1, KRAS G12D peptide on HLA-A*11:01
Experiment: CD137 by flow cytometry; transduced primary CD4+ and CD8+ T cells, TRAC/TRBC double knockout; G12D peptide titrated (FIG. 3E); full-length, on cells
Procedure: (§1) Primary CD4+ and CD8+ T cells were transduced with a KRAS-G12D-specific T cell receptor (TCR69, TCR79, TCR80, TCR81, or TCR91), and were either edited to knockout TRAC and TRBC or left with unmodified TRAC and TRBC genes, and expanded for several days. Engineered T cells were incubated with G12D peptide at decreasing concentrations and T cell responses were assessed by measuring CD137 expression.
(§2) In additional experiments, the effect of TRAC and TRBC knockout was evaluated for primary CD4+ and CD8+ T cells transduced with further KRAS-G12D-specific TCRs. The double knockout improved TCR avidity for multiple TCRs as shown in FIG. 3C (corresponding EC50 values in TABLE 2 and Cmax values in TABLE 3), FIG. 3D (corresponding EC50 values in TABLE 4), and FIG. 3E (corresponding EC50 values in TABLE 5).

| EC50 of peptide [nM] | Binder |
| --- | --- |
| 64.1 | B1 |
| 14.3 | B2 |

Target: T1, KRAS G12D peptide on HLA-A*11:01
Experiment: CD137 by flow cytometry; transduced primary CD4+ and CD8+ T cells, TRAC/TRBC double knockout; G12D peptide titrated (FIG. 3D); full-length, on cells
Procedure: as §1, §2

| EC50 of peptide [nM] | Binder |
| --- | --- |
| 12.2 | B1 |
| 6.4 | B2 |

Target: T1, KRAS G12D peptide on HLA-A*11:01
Experiment: CD137 by flow cytometry; transduced primary CD4+ and CD8+ T cells, TRAC/TRBC wild type; G12D peptide titrated (FIG. 3E); full-length, on cells
Procedure: as §1, §2

| EC50 of peptide [nM] | Binder |
| --- | --- |
| 119 | B1 |
| 24 | B2 |

Target: T2, KRAS G12D mutant peptide presented by HLA-A*11:01 on cells (human)
Experiment: cell-based or functional assay

| T cell activation EC50 (CD137 vs G12D peptide dose), TRAC/TRBC double knockout T cells [nM] | T cell activation EC50 (CD137 vs G12D peptide dose), WT TRAC/TRBC T cells [nM] | Binder |
| --- | --- | --- |
| 9.4 | 37.8 | B3 |
| 7.3 | 22.2 | B4 |
| 14.4 | 179 | B5 |
| 6.4 | 12.2 | B6 |
| 4.4 | 31.1 | B7 |
| 12.2 | 51.1 | B8 |

Target: T2, KRAS G12D mutant peptide presented by …
Experiment: cell-based or functional assay
Remark: another data set of the same source

| Cmax (%) of CD137 T cell activation by G12D peptide, without knockout of TRAC and TRBC [%] | T cell activation EC50 (CD137 vs G12D peptide dose), TRAC/TRBC double knockout T cells [nM] | T cell activation EC50 (CD137 vs G12D peptide dose), WT TRAC/TRBC T cells [nM] | Binder |
| --- | --- | --- | --- |
| 23.9 | 7.6 | 36.3 | B3 |
| 42.7 | 10.1 | 31.6 | B4 |
| 14.4 | 36.5 | 131 | B5 |
|  | 14.3 | 24 | B6 |
| 16 | 11.8 | 49.8 | B7 |
|  | 64.1 | 119 | B8 |

Target: T1, KRAS G12D peptide on HLA-A*11:01
Experiment: CD137 by flow cytometry; transduced primary CD4+ and CD8+ T cells, TRAC/TRBC wild type; G12D peptide titrated (FIG. 3D); full-length, on cells
Procedure: as §1, §2

| EC50 of peptide [nM] | Binder |
| --- | --- |
| 51.1 | B1 |
| 12.2 | B2 |
